Laboratory results published in the supplement of paper PMC11246515.
± gives the standard deviation of the averaged measurements.

Experiment: total protein half-life in vivo (active degradation + dilution); higher = more stable protein
[1] = E. coli NCM3722 delta-lon, growth: N-lim chemostat, doubling time 6 h
[2] = E. coli NCM3722 delta-smpB, growth: N-lim chemostat, doubling time 6 h
[3] = E. coli NCM3722 delta-clpP delta-lon delta-hslV, growth: N-lim chemostat, doubling time 6 h
[4] = E. coli NCM3722 delta-clpP, growth: N-lim chemostat, doubling time 6 h
[5] = E. coli NCM3722 delta-hslV, growth: N-lim chemostat, doubling time 6 h
[6] = wild type E. coli NCM3722, growth: C-lim chemostat, doubling time 3 h
[7] = wild type E. coli NCM3722, growth: C-lim chemostat, doubling time 6 h
[8] = wild type E. coli NCM3722, growth: C-lim chemostat, doubling time 12 h
[9] = wild type E. coli NCM3722, growth: N-lim chemostat, doubling time 6 h
[10] = wild type E. coli NCM3722, growth: N-lim chemostat, doubling time 12 h
[11] = wild type E. coli NCM3722, growth: P-lim chemostat, doubling time 6 h
[12] = wild type E. coli NCM3722, growth: P-lim chemostat, doubling time 12 h

Sequence	total protein half-life in vivo [1] [h]	total protein half-life in vivo [2] [h]	total protein half-life in vivo [3] [h]	total protein half-life in vivo [4] [h]	total protein half-life in vivo [5] [h]	total protein half-life in vivo [6] [h]	total protein half-life in vivo [7] [h]	total protein half-life in vivo [8] [h]	total protein half-life in vivo [9] [h]	total protein half-life in vivo [10] [h]	total protein half-life in vivo [11] [h]	total protein half-life in vivo [12] [h]
MNILQFNVRLAEGGAAGVALDLHQRALQQGLASHFVYGYGKGGKESVSHQNYPQVIKHTPRMTAMANIALFRLFNRDLFGNFNELYRTITRTAGPVVLHFHVLHSYWLNLKSVVRFCEKVKNHKPDVTLVWTLHDHWSVTGRCAFTDGCEGWKTGCQKCPTLNNYPPVKIDRAHQLVAGKRQLFREMLALGCQFISPSQHVADAFNSLYGPGRCRIINNGIDMATEAILADLPPVRETQGKPKIAVVAHDLRYDGKTNQQLVREMMALGDKIELHTFGKFSPFTAGNVVNHGFETDKRKLMSALNQMDALVFSSRVDNYPLILCEALSIGVPVIATHSDAAREVLQKSGGKTVSEEEVLQLVQLSKPEIAQAIFGTTLAEFSQRSRAAYSGQQMLEEYVNFYQNL	5.88 ± 0.64	5.05 ± 0.76										
MNINRDKIVQLVDTDTIENLTSALSQRLIADQLRLTTAESCTGGKLASALCAAEDTPKFYGAGFVTFTDQAKMKILSVSQQSLERYSAVSEKVAAEMATGAIERADADVSIAITGYGGPEGGEDGTPAGTVWFAWHIKGQNYTAVMHFAGDCETVLALAVRFALAQLLQLLL	5.18 ± 0.69	4.38 ± 0.19	4.97 ± 0.3	4.57 ± 0.048	4.76 ± 0.46	3.14 ± 0.69	6.15 ± 0.4	9.68	4.8 ± 0.062	11.1 ± 3.5	5.68 ± 0.57	12.6 ± 0.67
MNINVAELLNGNYILLLFVVLALGLCLGKLRLGSIQLGNSIGVLVVSLLLGQQHFSINTDALNLGFMLFIFCVGVEAGPNFFSIFFRDGKNYLMLALVMVGSALVIALGLGKLFGWDIGLTAGMLAGSMTSTPVLVGAGDTLRHSGMESRQLSLALDNLSLGYALTYLIGLVSLIVGARYLPKLQHQDLQTSAQQIARERGLDTDANRKVYLPVIRAYRVGPELVAWTDGKNLRELGIYRQTGCYIERIRRNGILANPDGDAVLQMGDEIALVGYPDAHARLDPSFRNGKEVFDRDLLDMRIVTEEVVVKNHNAVGKRLAQLKLTDHGCFLNRVIRSQIEMPIDDNVVLNKGDVLQVSGDARRVKTIADRIGFISIHSQVTDLLAFCAFFVIGLMIGMITFQFSTFSFGMGNAAGLLFAGIMLGFMRANHPTFGYIPQGALSMVKEFGLMVFMAGVGLSAGSGINNGLGAIGGQMLIAGLIVSLVPVVICFLFGAYVLRMNRALLFGAMMGARTCAPAMEIISDTARSNIPALGYAGTYAIANVLLTLAGTIIVMVWPGLG		6.19 ± 0.91	6.56 ± 0.66	6.38 ± 1			7.06 ± 0.39		6.17 ± 0.47		7.316 ± 0.023	12 ± 2.5
MNIRRKNRLWIACAVLAGLALTIGLVLYALRSNIDLFYTPGEILYGKRETQQMPEVGQRLRVGGMVMPGSVQRDPNSLKVTFTIYDAEGSVDVSYEGILPDLFREGQGVVVQGELEKGNHILAKEVLAKHDENYTPPEVEKAMEANHRRPASVYKDPAS	4.62 ± 0.13	4.65 ± 0.1	5.21 ± 0.82	4.46	4.36 ± 0.36	2.91 ± 0.059	6.09 ± 0.43	8.92 ± 0.19	4.31 ± 0.63	9.42 ± 2.7	4.67	10.05 ± 0.046
MNISDVAKITGLTSKAIRFYEEKGLVTPPMRSENGYRTYTQQHLNELTLLRQARQVGFNLEESGELVNLFNDPQRHSADVKRRTLEKVAEIERHIEELQSMRDQLLALANACPGDDSADCPIIENLSGCCHHRAG [P0A9G4]	2.12 ± 0.77		4.71 ± 0.63	1.45		1.3	1.95	2.21		1.07	0.945	2.28 ± 0.59
MNISSLRKAFIFMGAVAALSLVNAQSALAANESAKDMTCQEFIDLNPKAMTPVAWWMLHEETVYKGGDTVTLNETDLTQIPKVIEYCKKNPQKNLYTFKNQASNDLPN [P0AET2]				> 8								
MNIVITGGTGLIGRHLIPRLLELGHQITVVTRNPQKASSVLGPRVTLWQGLADQSNLNGVDAVINLAGEPIADKRWTHEQKERLCQSRWNITQKLVDLINASDTPPSVLISGSATGYYGDLGEVVVTEEEPPHNEFTHKLCARWEEIACRAQSDKTRVCLLRTGVVLAPDGGILGKMLPPFRLGLGGPIGSGRQYLAWIHIDDMVNGILWLLDNELRGPFNMVSPYPVRNEQFAHALGHALHRPAILRVPATAIRLLMGESSVLVLGGQRALPKRLEEAGFAFRWYDLEEALADVVR	5.86 ± 0.6	5.71 ± 0.17	7.07 ± 0.37	6.1 ± 0.14	6.36 ± 0.6	3.25 ± 0.15	5.86 ± 0.16	11.09 ± 0.052	5.76 ± 0.032		5.931 ± 0.026	12.38 ± 0.057
MNIVVLISGNGSNLQAIIDACKTNKIKGTVRAVFSNKADAFGLERARQAGIATHTLIASAFDSREAYDRELIHEIDMYAPDVVVLAGFMRILSPAFVSHYAGRLLNIHPSLLPKYPGLHTHRQALENGDEEHGTSVHFVTDELDGGPVILQAKVPVFAGDSEDDITARVQTQEHAIYPLVISWFADGRLKMHENAAWLDGQRLPPQGYAADE	4.68 ± 0.53	4.39 ± 0.18	4.883 ± 0.024	4.97 ± 0.32	5.15 ± 1.4	2.94 ± 0.6	5.63 ± 2.2		4.49 ± 0.41	9.87 ± 3.2	5.58 ± 0.33	
MNIYTFDFDEIESQEDFYRDFSQTFGLAKDKVRDLDSLWDVLMNDVLPLPLEIEFVHLGEKTRRRFGALILLFDEAEEELEGHLRFNVRH	7.32	4.41 ± 0.68	4.37 ± 1.1	3.85	5.5	2.87	5.2	9.22 ± 0.45	4.83 ± 0.14	10.2	4.26	10.1 ± 1.3
